The text below walks through data of paper doi:10.1101/2024.05.31.596772 (2024).

For the assay, the target named is microtubules (pig (purified from porcine brain)).
Sequence of microtubules (pig (purified from porcine brain)) (chain, as listed by the source, chain 1 of 2): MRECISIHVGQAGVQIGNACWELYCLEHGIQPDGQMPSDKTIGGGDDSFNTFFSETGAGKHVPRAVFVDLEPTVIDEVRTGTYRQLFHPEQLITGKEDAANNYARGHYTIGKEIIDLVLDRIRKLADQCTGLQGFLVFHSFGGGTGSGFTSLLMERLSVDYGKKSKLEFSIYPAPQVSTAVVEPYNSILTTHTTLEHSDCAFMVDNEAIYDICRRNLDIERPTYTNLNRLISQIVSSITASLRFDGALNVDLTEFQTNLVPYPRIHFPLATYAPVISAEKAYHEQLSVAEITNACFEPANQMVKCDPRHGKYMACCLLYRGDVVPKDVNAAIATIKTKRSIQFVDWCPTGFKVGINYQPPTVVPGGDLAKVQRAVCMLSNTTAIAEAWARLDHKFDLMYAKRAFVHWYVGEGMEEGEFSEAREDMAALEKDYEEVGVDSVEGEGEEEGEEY
Sequence of microtubules (pig (purified from porcine brain)) (chain, as listed by the source, chain 2 of 2): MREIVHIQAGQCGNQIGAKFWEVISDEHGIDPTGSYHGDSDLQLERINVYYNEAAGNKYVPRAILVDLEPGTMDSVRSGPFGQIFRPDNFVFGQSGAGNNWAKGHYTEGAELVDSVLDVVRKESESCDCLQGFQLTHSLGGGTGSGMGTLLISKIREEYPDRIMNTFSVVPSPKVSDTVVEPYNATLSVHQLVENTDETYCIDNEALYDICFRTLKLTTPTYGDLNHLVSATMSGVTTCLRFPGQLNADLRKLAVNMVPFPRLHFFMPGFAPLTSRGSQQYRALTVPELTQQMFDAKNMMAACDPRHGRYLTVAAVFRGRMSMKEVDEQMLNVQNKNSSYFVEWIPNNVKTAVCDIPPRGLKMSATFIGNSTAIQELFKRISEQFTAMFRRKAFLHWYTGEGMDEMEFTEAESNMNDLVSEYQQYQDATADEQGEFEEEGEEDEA

B1: GFP-CAMSAP3 CKK (domain or fragment)
chain: GPRLYKEPSAKSNKFIIHNALSHCCLAGKVNEPQKNRILEEIEKSKANHFLILFRDSSCQFRALYTLSGETEELSRLAGYGPRTVTPAMVEGIYKYNSDRKRFTQIPAKTMSMSVDAFTIQGHLWQSKKPTTPKK
For orientation: Kd means the free concentration of one partner at which half of the binding sites on the other are occupied at equilibrium, for simple one-to-one binding. Read a high Kd as a looser complex. Consider B1, for which the affinity, expressed as Kd, was 2140 nM.
